Results reported in patent publication US12123009B2, “Methods and compositions for PPO herbicide tolerance in plants” (Monsanto Technology LLC, priority 2015, dated 2024).

Key:
[1] = target: Waterhemp (Amaranthus tuberculata) protoporphyrinogen oxidase (PPO), wild type; assay: PPO enzyme assay (plastid extract); type: biochemical; details: 3 μM protogen; pH 7.4, 30° C.; read-out: S-3100 IC50
[2] = tested on: soybean, non-transgenic or expressing H_N10 (SEQ ID NO: 4); assay: Green house S-3100 efficacy screen of R1 soybean; type: in vivo
Procedure: Single-copy transgenic R1 soybean plants in the greenhouse were sprayed with one of three herbicide application rates: Treatment 1 was 5 grams ai/ha S-3100 applied at V4 followed by (fb) R1; Treatment 2 was 10 grams ai/ha S-3100 applied at V4 fb R1; Treatment 3 was 30 grams ai/ha S-3100 applied at V4 fb R1. Crop Injury Percent at V2 (CIPV2) ratings were assessed ten days after treatment. Non-transgenic plants had average injury ratings of 89% to 100% and were not available for rating at the R1 growth stage.

[3] = tested on: leaf discs of transgenic maize expressing H_N10 (SEQ ID NO: 4); assay: Leaf disc assay, maize; type: in vivo; details: H_N10, construct 6; 1 micromolar
Procedure: A leaf-disc assay was employed for rapid and minimally damaging assessment of herbicide tolerance in transgenic plants expressing a recombinant PPO enzyme. Leaf tissue was sampled from the youngest fully-green leaf of corn and soybean plants. Five 4-mm diameter leaf discs were cut from the leaf samples using a disposable biopsy punch with a plunger (Integra® Miltex®, Inc., York. Pennsylvania) and the leaf discs were placed into one ml of incubation solution (1 mM MES, pH 6.5, 1% w/v sucrose, 1% (v/v) acetone) in 24-well polystyrene plates with lids. For herbicide tolerance analysis, S-3100 was added to the incubation solution to a final concentration of 1 micromolar. Vacuum infiltration was applied and plates of leaf discs were incubated in continuous darkness for one day at room temperature (23-24° C.) followed by one (soybean) or two (corn) days continuous light incubation under overhead fluorescent and incandescent bulbs (520 uE) at 26-27° C. Leaf disc injury was then scored visually on a scale from 0 (lowest injury) to 4 (highest injury), with lower scores indicating better tolerance to the PPO herbicide.

[4] = target: H_N70 (SEQ ID NO: 8), microbial HemG protoporphyrinogen oxidase (Pantoea phytostimulans, UniProt A0ACH3N612); assay: PPO enzyme assay (bacterial extract); details: read-out: S-3100 IC50; 3 μM protogen; pH 7.4, 37° C.
[5] = tested on: soybean plantlets; assay: High-throughput soybean screening for herbicide tolerance (plantlets); type: in vivo, soybean (A3555); design: key: 0 for poor tolerance, high damage, low green coloration; 1 for some tolerance, average damage, moderate green coloration; 2 for good tolerance, low damage, high green coloration; details: S-3100 spray five weeks post-transformation, scored day four
Procedure, shortened: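 Soybean embryo explants (A3555) transformed via A. tumefaciens; at five weeks, plantlets sprayed with two passes of S-3100 (0.3 g in 5.0 mL crop oil concentrate plus 495 mL water). After four days with at least 15 h light daily, green coloration versus damage scored 0 (poor), 1 (some) or 2 (good tolerance).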

H_N70 (SEQ ID NO: 8), microbial HemG protoporphyrinogen oxidase, sequence (A0ACH3N612 entry or part of it): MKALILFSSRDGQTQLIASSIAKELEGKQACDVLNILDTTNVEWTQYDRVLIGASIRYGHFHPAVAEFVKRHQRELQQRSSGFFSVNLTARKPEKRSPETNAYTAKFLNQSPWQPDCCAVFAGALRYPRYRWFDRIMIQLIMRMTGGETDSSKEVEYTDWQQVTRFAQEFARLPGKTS

In the case of CCOC(=O)COc1ncccc1Oc1cc(-n2c(=O)cc(C(F)(F)F)n(C)c2=O)c(F)cc1Cl [S-3100, ethyl [3-2-chloro-4-fluoro-5-(1-methyl-6-trifluoromethyl-2,4-dioxo-1,2,3,4-tetrahydropyrimidin-3-yl)phenoxy]-2-pyridyloxylacetate], the IC50 [1] is reported as 9 nM, the “% Injury R1 stage” value ([2]; H_N10, construct 1, 5 g/ha) is reported as 3% and the “% Injury V4 stage” value ([2]; H_N10, construct 1, 5 g/ha) is reported as 4.2%. The “% Injury R1 stage” value ([2]; H_N10, construct 1, 10 g/ha) was 6.5%, the “% Injury V4 stage” value ([2]; H_N10, construct 1, 10 g/ha) was 7.8% and the “% Injury R1 stage” value ([2]; H_N10, construct 1, 30 g/ha) was 15.7%. The “% Injury V4 stage” value ([2]; H_N10, construct 1, 30 g/ha) was 9.4%, the “% Injury V4 stage” value ([2]; Nontransgenic, 5 g/ha) was 89% and the “% Injury V4 stage” value ([2]; Nontransgenic, 10 g/ha) was 98%. For the same molecule, the “% Injury V4 stage” value ([2]; Nontransgenic, 30 g/ha) was 100%, the “average leaf disc score (0 lowest to 4 highest injury)” value [3] was 0.4 and the IC50 [4] was over 100000 nM.

B1: H_N90: microbial HemG protoporphyrinogen oxidase, SEQ ID NO:1 (SEQ ID NO:11 lacking start methionine; variants 18, 19) (protein, listed as Enterobacter cloacae)
chain: MKALVLYSTRDGQTHAIASYIASCMKEKAECDVIDLTHGEHVNLTQYDQVLIGASIRYGHFNAVLDKFIKRNVDQLNNMPSAFFCVNLTARKPEKRTPQTNPYVRKFLLATPWQPALCGVFAGALRYPRYRWIDKVMIQLIMRMTGGETDTSKEVEYTDWEQVKKFAEDFAKLSYKKAL
B1 was tested, and the coloration score ([5]; TP9) was 1, the coloration score ([5]; TP10) was 2 and the coloration score ([5]; TP11) was 2. It also gave a coloration score ([5]; TP12) of 2, a coloration score ([5]; TP13) of 2 and a coloration score ([5]; TP14) of 2. The coloration score ([5]; TP15) was 2, the coloration score ([5]; TP16) was 1 and the coloration score ([5]; TP17) was 2. It also gave a coloration score ([5]; TP18) of 2, a coloration score ([5]; TP19) of 1 and a coloration score ([5]; TP20) of 2. For the same molecule, the coloration score ([5]; TP21) was 1, the coloration score ([5]; TP22) was 2 and the coloration score ([5]; TP23) was 1. The coloration score ([5]; TP24) was 1, the coloration score ([5]; TP25) was 1 and the coloration score ([5]; TP26) was 0. It also gave a coloration score ([5]; TP27) of 1, a coloration score ([5]; TP28) of 2 and a coloration score ([5]; TP29) of 1. For the same molecule, the coloration score ([5]; TP30) was 1, the coloration score ([5]; TP31) was 0 and the coloration score ([5]; TP32) was 0. It also gave a coloration score ([5]; TP33) of 2, a coloration score ([5]; TP34) of 2 and a coloration score ([5]; TP35) of 1. The coloration score ([5]; TP36) was 2.
